{
  "source": "the RNAGym collection of RNA variant scans (doi:10.1073/pnas.2313332121)",
  "parents": {"B1": {"name": "TPR t1 (parent)", "chain": "GACCAAUCUGCCCUCAGAGCUCGAGAACAUCUUCGGAUGCAGAGGAGGCAGGCUUCGGUGGCGCGAUAGCGCCAACGUCCUCAACCUCCAAUGCAUCCCACCACAUGAUGAUGCCUGAAGAGCCUUGGUUUUUUG"}},
  "data": [
    {"variants_of": "B1", "experiment": "polymerase ribozyme fitness, log enrichment relative to wild type (log ratio); higher = more active; in vitro selection for triplet polymerase activity", "procedure,_shortened": "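Fitness compares each genotype's enrichment to that of the wild type on a logarithmic scale, averaging replicates with inverse-variance weights. The logarithm is base 2. Enrichment came from Illumina sequencing of input and output libraries after one triplicate round of in vitro selection, which included frozen incubation at −7 °C, of PCR-built, transcribed mutant libraries of each subunit of a heterodimeric triplet polymerase ribozyme. Only genotypes with ≥10 input reads and ≥1 read per output were kept.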", "values": [
      {"variant": "G42U C72U", "polymerase ribozyme fitness (log ratio)": -1.64},
      {"variant": "A43C C124A U125G", "polymerase ribozyme fitness (log ratio)": -0.534},
      {"variant": "G42C G120A U132A", "polymerase ribozyme fitness (log ratio)": -0.616},
      {"variant": "A41G C53U G77A A108G", "polymerase ribozyme fitness (log ratio)": -2.63},
      {"variant": "G42U G58C G63A C82G U87C", "polymerase ribozyme fitness (log ratio)": -5.43},
      {"variant": "A41U C104U", "polymerase ribozyme fitness (log ratio)": -0.832},
      {"variant": "C40U C70A", "polymerase ribozyme fitness (log ratio)": -1.93},
      {"variant": "A41U C53U C72A C86A C114U U129G", "polymerase ribozyme fitness (log ratio)": -5.65},
      {"variant": "A43C G51U C56U G58A C80A C89G C101A G122U C123A G127A", "polymerase ribozyme fitness (log ratio)": -6.31},
      {"variant": "C40U C56U A90U", "polymerase ribozyme fitness (log ratio)": -2.08},
      {"variant": "A41U C101G", "polymerase ribozyme fitness (log ratio)": -3.73},
      {"variant": "G42A G113A", "polymerase ribozyme fitness (log ratio)": -2.62},
      {"variant": "G42C C56U C124A", "polymerase ribozyme fitness (log ratio)": 0.861},
      {"variant": "A43G G57U C73U A90U C102U", "polymerase ribozyme fitness (log ratio)": -4.93},
      {"variant": "A41U C94U A111G G128U", "polymerase ribozyme fitness (log ratio)": -4.31},
      {"variant": "A43C G77A G127C", "polymerase ribozyme fitness (log ratio)": -3.5},
      {"variant": "A41G U55A U130G", "polymerase ribozyme fitness (log ratio)": -0.934},
      {"variant": "C40U G48C C82A", "polymerase ribozyme fitness (log ratio)": -1.94},
      {"variant": "A41C U106G C114U U130A", "polymerase ribozyme fitness (log ratio)": -4.41},
      {"variant": "A43C G47U", "polymerase ribozyme fitness (log ratio)": -3.64},
      {"variant": "C40U G48C", "polymerase ribozyme fitness (log ratio)": -1.59},
      {"variant": "A41U U92A", "polymerase ribozyme fitness (log ratio)": -0.903},
      {"variant": "G42U G61U C82U G127A U133A", "polymerase ribozyme fitness (log ratio)": -3.41},
      {"variant": "A41U G42U G93C", "polymerase ribozyme fitness (log ratio)": -3.1},
      {"variant": "G42U G61U C123A", "polymerase ribozyme fitness (log ratio)": -0.3},
      {"variant": "G42A U54C U132A", "polymerase ribozyme fitness (log ratio)": -1.62},
      {"variant": "A41U G45C", "polymerase ribozyme fitness (log ratio)": -2.41},
      {"variant": "C40U G44A U125A", "polymerase ribozyme fitness (log ratio)": -1.32},
      {"variant": "A41C A46G U109A", "polymerase ribozyme fitness (log ratio)": -7.53},
      {"variant": "G42C G48A G63U U78C A83C G113U", "polymerase ribozyme fitness (log ratio)": -7.11},
      {"variant": "A41U A91C U92C", "polymerase ribozyme fitness (log ratio)": -2.44},
      {"variant": "A41U A43G C94U", "polymerase ribozyme fitness (log ratio)": -3.17},
      {"variant": "C40U C49A C94U G117C", "polymerase ribozyme fitness (log ratio)": -5.09},
      {"variant": "A43C G52U", "polymerase ribozyme fitness (log ratio)": -3.56},
      {"variant": "A41C C70U G71C G117U C123A G128A", "polymerase ribozyme fitness (log ratio)": -6.8},
      {"variant": "G42C A66U A83U", "polymerase ribozyme fitness (log ratio)": -3.36},
      {"variant": "A43C U92G A111C C114A", "polymerase ribozyme fitness (log ratio)": -6.46},
      {"variant": "A43C U55A C62U G93U U96G", "polymerase ribozyme fitness (log ratio)": -4.79},
      {"variant": "G42U C70U", "polymerase ribozyme fitness (log ratio)": -2.26},
      {"variant": "A41U G58C", "polymerase ribozyme fitness (log ratio)": -1.16},
      {"variant": "A43C C101U", "polymerase ribozyme fitness (log ratio)": -2.75},
      {"variant": "G42U A50C", "polymerase ribozyme fitness (log ratio)": -1.99},
      {"variant": "C40U G51U", "polymerase ribozyme fitness (log ratio)": -3.7},
      {"variant": "G42C G44U G117U A118U", "polymerase ribozyme fitness (log ratio)": -5.32},
      {"variant": "G42A U78A", "polymerase ribozyme fitness (log ratio)": -2.26},
      {"variant": "G42U C72A A74G U96C", "polymerase ribozyme fitness (log ratio)": -3.45},
      {"variant": "G42C U96A C123U", "polymerase ribozyme fitness (log ratio)": -0.809},
      {"variant": "A41C G69U U112C", "polymerase ribozyme fitness (log ratio)": 0.865},
      {"variant": "G42U A43G G45U U55G C72A", "polymerase ribozyme fitness (log ratio)": -0.969},
      {"variant": "G42U U78A C85U", "polymerase ribozyme fitness (log ratio)": -2.63},
      {"variant": "C40U C53U G61C U131A", "polymerase ribozyme fitness (log ratio)": -0.765},
      {"variant": "A41G G63U G117C", "polymerase ribozyme fitness (log ratio)": -6.01},
      {"variant": "A43U A46U C97U", "polymerase ribozyme fitness (log ratio)": -3.34},
      {"variant": "G42A A100C", "polymerase ribozyme fitness (log ratio)": -4.08},
      {"variant": "G42C C124G", "polymerase ribozyme fitness (log ratio)": 0.37},
      {"variant": "A43C A118U", "polymerase ribozyme fitness (log ratio)": -1.82},
      {"variant": "A41U C80U C123A", "polymerase ribozyme fitness (log ratio)": -1.59},
      {"variant": "G42A C56G G122A", "polymerase ribozyme fitness (log ratio)": -3.21},
      {"variant": "A43C C88U", "polymerase ribozyme fitness (log ratio)": -2.23},
      {"variant": "A43C C53A C56A C62U", "polymerase ribozyme fitness (log ratio)": -3.14},
      {"variant": "G42A C88G U132C", "polymerase ribozyme fitness (log ratio)": -2.38},
      {"variant": "A41U G42C C114A C124A", "polymerase ribozyme fitness (log ratio)": -3.31},
      {"variant": "A41C G117C", "polymerase ribozyme fitness (log ratio)": -4.47},
      {"variant": "A41U C72G U78A A83U", "polymerase ribozyme fitness (log ratio)": -2.44},
      {"variant": "A41U C102U", "polymerase ribozyme fitness (log ratio)": -3.6},
      {"variant": "G42A G45U C85A A111U", "polymerase ribozyme fitness (log ratio)": -5.93},
      {"variant": "C40U G60U G110A", "polymerase ribozyme fitness (log ratio)": -1.76},
      {"variant": "G42U G122A", "polymerase ribozyme fitness (log ratio)": -1.66},
      {"variant": "A43C G48U C62A A66U C123A", "polymerase ribozyme fitness (log ratio)": -6.8},
      {"variant": "C40U C76U G117A", "polymerase ribozyme fitness (log ratio)": -2.16},
      {"variant": "A43C C49A C94A C115A", "polymerase ribozyme fitness (log ratio)": -4.43},
      {"variant": "C40U G48A C53A G61A U132A", "polymerase ribozyme fitness (log ratio)": -0.596},
      {"variant": "C40U C104A", "polymerase ribozyme fitness (log ratio)": -2.08},
      {"variant": "C40U C104U", "polymerase ribozyme fitness (log ratio)": -0.655},
      {"variant": "A41U G45U U78C", "polymerase ribozyme fitness (log ratio)": -2.76},
      {"variant": "A41U C70A C89G C97A A105C G110U", "polymerase ribozyme fitness (log ratio)": -5.8},
      {"variant": "A43G G69C A90C C124G", "polymerase ribozyme fitness (log ratio)": -0.889},
      {"variant": "A43C A46G", "polymerase ribozyme fitness (log ratio)": -1.62},
      {"variant": "G42U G93U A118G", "polymerase ribozyme fitness (log ratio)": -2.35},
      {"variant": "G42A G45U C101A", "polymerase ribozyme fitness (log ratio)": -4.7},
      {"variant": "G42C U54G", "polymerase ribozyme fitness (log ratio)": -1.44},
      {"variant": "G42U U78C", "polymerase ribozyme fitness (log ratio)": -1.45},
      {"variant": "C40U G57C A90C A103U U112G", "polymerase ribozyme fitness (log ratio)": -6.33},
      {"variant": "A43C C85U C115G", "polymerase ribozyme fitness (log ratio)": -4.93}
    ]}
  ]
}
